Results reported in article PMC6662825, “The MTR4 helicase recruits nuclear adaptors of the human RNA exosome using distinct arch-interacting motifs” (Nature Communications, 2019).

Biological target: T1, GST-MTR4∆N F677E (human, UniProt P42285 75-1042, F677E)
T1 construct: source: E. coli BL21 star (DE3), purified (Ni-NTA, heparin, SEC); not shown: 6xHis-GST, N-terminal, kept
T1 sequence (looked up): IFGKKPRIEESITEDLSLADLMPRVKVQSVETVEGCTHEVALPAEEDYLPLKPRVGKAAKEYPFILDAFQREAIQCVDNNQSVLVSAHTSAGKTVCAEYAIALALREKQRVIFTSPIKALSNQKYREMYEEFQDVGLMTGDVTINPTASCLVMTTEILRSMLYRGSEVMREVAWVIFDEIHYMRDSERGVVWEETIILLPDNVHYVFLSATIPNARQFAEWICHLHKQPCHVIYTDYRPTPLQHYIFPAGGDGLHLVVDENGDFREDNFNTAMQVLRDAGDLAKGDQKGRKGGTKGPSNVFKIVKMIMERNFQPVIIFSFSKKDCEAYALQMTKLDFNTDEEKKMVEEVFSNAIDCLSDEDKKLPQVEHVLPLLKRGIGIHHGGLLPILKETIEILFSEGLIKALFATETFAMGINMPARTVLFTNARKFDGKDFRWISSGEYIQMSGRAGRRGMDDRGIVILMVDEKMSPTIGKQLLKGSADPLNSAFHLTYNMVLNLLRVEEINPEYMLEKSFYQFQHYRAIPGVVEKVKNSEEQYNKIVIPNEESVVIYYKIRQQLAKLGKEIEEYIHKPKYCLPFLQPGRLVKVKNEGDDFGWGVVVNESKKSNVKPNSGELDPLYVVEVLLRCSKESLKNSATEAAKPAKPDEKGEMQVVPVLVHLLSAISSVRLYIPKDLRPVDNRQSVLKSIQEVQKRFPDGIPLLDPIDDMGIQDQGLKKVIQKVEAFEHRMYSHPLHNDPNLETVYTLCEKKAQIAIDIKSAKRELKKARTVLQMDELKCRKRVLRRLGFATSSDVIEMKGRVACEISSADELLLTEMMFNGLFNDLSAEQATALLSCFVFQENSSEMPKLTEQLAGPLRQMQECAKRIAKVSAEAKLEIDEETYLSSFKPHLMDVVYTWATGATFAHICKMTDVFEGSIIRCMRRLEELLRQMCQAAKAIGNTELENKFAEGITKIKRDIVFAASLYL
Assay: pull-down; GST-tagged MTR4 constructs as bait, Trx-NVL constructs as prey, glutathione sepharose; 10 μM GST-MTR4∆N with 20 μM Trx-NVL constructs; 50 mM Hepes pH 7.5, 150 mM NaCl, 5% glycerol, 0.05% NP40, 1 mM DTT, 30 min at 4 °C; SDS-PAGE, Coomassie
Conditions: both partners purified

binding result: binds
B1: Trx-NVL^167–216 (domain or fragment, human, UniProt O15381 167-216, looked up)
chain: KDSEGGWFIDKTPSVKKDSFFLDLSCEKSNPKKPITEIQDSKDSSLLESD
notes: source: E. coli BL21 star (DE3), purified (Ni-NTA, SEC); not shown: 6xHis-Trx, N-terminal, kept
